The record followed here is IntAct's records for PubMed 16418290.

B1: Caspase recruitment domain-containing protein 6 (Homo sapiens), Q9BX69 (parent)
chain: MATESTPSEIIERERKKLLEILQHDPDSILDTLTSRRLISEEEYETLENVTDLLKKSRKLLILVQKKGEATCQHFLKCLFSTFPQSAAICGLRHEVLKHENTVPPQSMGASSNSEDAFSPGIKQPEAPEITVFFSEKEHLDLETSEFFRDKKTSYRETALSARKNEKEYDTPEVTLSYSVEKVGCEVPATITYIKDGQRYEELDDSLYLGKEEYLGSVDTPEDAEATVEEEVYDDPEHVGYDGEEDFENSETTEFSGEEPSYEGSETSLSLEEEQEKSIEERKKVFKDVLLCLNMDRSRKVLPDFVKQFSLDRGCKWTPESPGDLAWNFLMKVQARDVTARDSILSHKVLDEDSKEDLLAGVENLEIRDIQTINPLDVLCATMLCSDSSLQRQVMSNMYQCQFALPLLLPDAENNKSILMLGAMKDIVKKQSTQFSGGPTEDTEKFLTLMKMPVISFVRLGYCSFSKSRILNTLLSPAQLKLHKIFLHQDLPLLVLPRQISDGLVEITWCFPDSDDRKENPFFQKPVALANLRGNLESFWTQFGFLMEVSSAVFFFTDCLGEKEWDLLMFLGEAAIERCYFVLSSQARESEEAQIFQRILNLKPAQLLFWERGDAGDRRKNMEGLQAALQEVMFSSCLRCVSVEDMAALARELGIQVDEDFENTQRIQVSSGENMAGTAEGEGQQRHSQLKSSSKSQALMPIQEPGTQCELSQNLQNLYGTPVFRPVLENSWLFPTRIGGNFNHVSLKASWVMGRPFGSEQRPKWFHPLPFQNAGAQGRGKSFGIQSFHPQIFYSGERFMKFSRVARGCHSNGTFGRLPRPICQHVQACPERPQMMGTLERSRAVASKIGHSYSLDSQPARAVGKPWPQQACTRVTELTEATGKLIRTSHIGKPHPQSFQPAAATQKLRPASQQGVQMKTQGGASNPALQIGSHPMCKSSQFKSDQSNPSTVKHSQPKPFHSVPSQPKSSQTKSCQSQPSQTKPSPCKSTQPKPSQPWPPQSKPSQPRPPQPKSSSTNPSQAKAHHSKAGQKRGGKH

The variants in the assay derive from B1. The note with it: with ripk2_human RIPK2, O43353.
ripk2_human RIPK2, O43353, sequence (O43353 whole entry): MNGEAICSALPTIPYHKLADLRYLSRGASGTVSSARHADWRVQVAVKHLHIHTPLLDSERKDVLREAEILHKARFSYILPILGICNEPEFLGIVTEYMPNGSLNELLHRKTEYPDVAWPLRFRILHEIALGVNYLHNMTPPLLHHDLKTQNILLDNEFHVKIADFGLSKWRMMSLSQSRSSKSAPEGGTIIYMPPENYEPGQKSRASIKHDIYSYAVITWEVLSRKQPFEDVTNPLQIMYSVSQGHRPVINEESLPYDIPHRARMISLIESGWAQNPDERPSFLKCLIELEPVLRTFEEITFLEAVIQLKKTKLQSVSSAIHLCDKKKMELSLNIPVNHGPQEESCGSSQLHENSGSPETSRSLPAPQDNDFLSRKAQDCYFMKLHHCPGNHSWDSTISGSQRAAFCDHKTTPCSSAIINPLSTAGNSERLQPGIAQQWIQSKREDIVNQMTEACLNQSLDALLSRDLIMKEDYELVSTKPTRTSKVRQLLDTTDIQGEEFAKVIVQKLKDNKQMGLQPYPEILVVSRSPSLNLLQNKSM
For the variant L30R;D31N;L33R, the “effect of a mutation on the interaction” value is “increasing interaction strength”.
